The values that follow come from patent US20190002511.

Series [1] concerns avathrin (Amblyomma variegatum thrombin inhibitor).
Sequence of avathrin (Amblyomma variegatum thrombin inhibitor) (chain, as listed by the source): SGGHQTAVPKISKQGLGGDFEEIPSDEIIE

Sequence of ultravariegin (chain, as listed by the source): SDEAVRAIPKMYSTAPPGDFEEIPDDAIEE
Sequence of β-avathrin (chain, as listed by the source): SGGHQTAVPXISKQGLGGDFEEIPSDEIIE
Sequence of avathrin K10R (chain, as listed by the source K10R): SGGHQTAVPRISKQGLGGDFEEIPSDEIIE

In the case of human α-thrombin (recombinant), the “time to complete cleavage by thrombin (30:1 peptide to enzyme)” value in series [1] is “avathrin was completely cleaved at ~10 h”. Besides, the cleavage by thrombin entry in the series with β-avathrin is “it was not cleaved by thrombin for up to 72 h”. Moreover, the “time to complete cleavage by thrombin” value with avathrin K10R is given as “resulting in complete cleavage within 3 h”; in the series on ultravariegin, “At 18 h, ultravariegin was completely cleaved”.
